The target in data set [1] is Full-length five-subunit Danio rerio tRNA ligase complex (DDX1, RTCB, FAM98B, CGI99, ASW) (Danio rerio) (UniProt F1R2L8).
For data set [2], the target named is Truncated Danio rerio tRNA ligase complex (His6-RTCB, FAM98B, CGI99, ASW 1-83, DDX1 693-740) (Danio rerio) (UniProt Q6NZS4).
In data set [3] the target is Dr-tRNA-LC-FL (DDX1, RTCB, FAM98B, CGI99, ASW) (Danio rerio) (UniProt F1R2L8+Q6NZS4+A0PJS3+Q7ZUH1). Kind of data set: MST. To be noted: 2 mM GTP, 2 mM MnCl2 (buffer B, implied by text); MST: 25 mM Hepes pH 7.5, 150 mM NaCl, 1 mM DTT, with or without 2 mM GTP and 2 mM MnCl2, 20 nM Cy5-tRNA, temperature not stated; crosslinking: 50 mM Tris pH ….
Data set [4] concerns the target T1, Dr-tRNA-LC-TR (DDX1 C-term, RTCB, FAM98B, CGI99, ASW N-term) (Danio rerio) (UniProt F1R2L8+Q6NZS4+A0PJS3+Q7ZUH1).
T1 sequence 1: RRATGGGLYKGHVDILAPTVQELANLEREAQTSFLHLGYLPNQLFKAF
T1 sequence 2: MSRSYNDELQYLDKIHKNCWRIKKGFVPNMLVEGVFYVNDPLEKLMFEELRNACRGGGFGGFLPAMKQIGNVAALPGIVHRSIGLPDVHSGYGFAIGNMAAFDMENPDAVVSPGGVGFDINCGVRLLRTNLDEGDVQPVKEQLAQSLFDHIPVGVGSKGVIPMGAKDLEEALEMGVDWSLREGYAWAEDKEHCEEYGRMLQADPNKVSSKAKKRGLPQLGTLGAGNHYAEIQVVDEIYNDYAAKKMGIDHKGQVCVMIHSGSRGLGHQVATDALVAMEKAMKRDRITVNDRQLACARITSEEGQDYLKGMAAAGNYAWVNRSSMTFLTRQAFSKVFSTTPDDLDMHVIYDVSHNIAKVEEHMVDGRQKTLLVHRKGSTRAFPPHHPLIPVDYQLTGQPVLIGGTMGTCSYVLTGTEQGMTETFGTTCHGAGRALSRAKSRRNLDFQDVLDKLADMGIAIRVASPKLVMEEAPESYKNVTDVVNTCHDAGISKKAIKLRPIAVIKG
T1 sequence 3: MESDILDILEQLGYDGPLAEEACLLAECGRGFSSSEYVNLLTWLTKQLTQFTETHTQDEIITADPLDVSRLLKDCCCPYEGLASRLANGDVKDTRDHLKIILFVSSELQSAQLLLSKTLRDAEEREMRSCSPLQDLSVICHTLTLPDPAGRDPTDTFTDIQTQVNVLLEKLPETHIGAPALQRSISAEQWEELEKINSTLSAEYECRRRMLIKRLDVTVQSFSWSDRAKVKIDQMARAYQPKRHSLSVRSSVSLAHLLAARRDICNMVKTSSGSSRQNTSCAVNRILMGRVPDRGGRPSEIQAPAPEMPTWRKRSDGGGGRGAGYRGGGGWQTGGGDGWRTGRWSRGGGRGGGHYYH
T1 sequence 4: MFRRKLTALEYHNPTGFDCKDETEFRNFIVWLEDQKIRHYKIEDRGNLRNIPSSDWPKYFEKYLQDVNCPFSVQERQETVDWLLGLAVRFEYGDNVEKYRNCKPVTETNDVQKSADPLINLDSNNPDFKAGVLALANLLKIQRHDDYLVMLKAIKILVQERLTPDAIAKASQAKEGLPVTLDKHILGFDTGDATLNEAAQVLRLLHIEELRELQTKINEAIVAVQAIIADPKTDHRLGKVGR
Kind of data set: MST. To be noted: 2 mM GTP, 2 mM MnCl2 (buffer B, implied by text); MST: 25 mM Hepes pH 7.5, 150 mM NaCl, 1 mM DTT, with or without 2 mM GTP and 2 mM MnCl2, 20 nM Cy5-tRNA, temperature not stated; crosslinking: 50 mM Tris pH ….

By Kd is commonly meant the constant that tells how readily two partners part at equilibrium.

As for Danio rerio Archease (natural protein), the RNA ligase activity on the short 10-bp RNA duplex substrate, percent of substrate converted to product, time course up to 120 min (0.15 μM complex, 0.6 μM Dr-Archease) in data set [1] came to 60%; in data set [2] it was 85%.

Take “GGCUCCAGUGGCGCAAUCGGUUAGCGCGCGGUACUUAUAAUGCCGAGGUUGUGAGUUCGAGCCUCACCUGGAGCACCA [tRNAIle]”: the Kd in data set [3] came to 94 nM; in data set [4], 89.4 nM.

The values above are taken from article PMC12135372.
